Assay results taken from IntAct's records for PubMed 11163258.

B1: Platelet-activating factor acetylhydrolase IB subunit beta (Homo sapiens), P43034 (parent)
chain: MVLSQRQRDELNRAIADYLRSNGYEEAYSVFKKEAELDVNEELDKKYAGLLEKKWTSVIRLQKKVMELESKLNEAKEEFTSGGPLGQKRDPKEWIPRPPEKYALSGHRSPVTRVIFHPVFSVMVSASEDATIKVWDYETGDFERTLKGHTDSVQDISFDHSGKLLASCSADMTIKLWDFQGFECIRTMHGHDHNVSSVAIMPNGDHIVSASRDKTIKMWEVQTGYCVKTFTGHREWVRMVRPNQDGTLIASCSNDQTVRVWVVATKECKAELREHEHVVECISWAPESSYSSISEATGSETKKSGKPGPFLLSGSRDKTIKMWDVSTGMCLMTLVGHDNWVRGVLFHSGGKFILSCADDKTLRVWDYKNKRCMKTLNAHEHFVTSLDFHKTAPYVVTGSVDQTVKVWECR
partner: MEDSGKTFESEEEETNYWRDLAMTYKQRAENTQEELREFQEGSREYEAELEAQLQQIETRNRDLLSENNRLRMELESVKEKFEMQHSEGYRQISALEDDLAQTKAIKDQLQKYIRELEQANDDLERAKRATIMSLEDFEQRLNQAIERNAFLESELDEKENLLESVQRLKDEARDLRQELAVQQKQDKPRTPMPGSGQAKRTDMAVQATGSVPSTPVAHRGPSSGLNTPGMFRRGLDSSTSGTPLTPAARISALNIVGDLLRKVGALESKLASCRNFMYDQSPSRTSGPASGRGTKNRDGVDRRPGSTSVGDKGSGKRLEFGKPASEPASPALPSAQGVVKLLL

Variants of: B1
Settings: with nde1_mouse Nde1, Q9CZA6

Variant	effect of a mutation on the interaction
H149R	decreasing interaction
S169P	decreasing interaction
